Assay results published in patent US20030133912A1 (published 2003).

T1: Human coxsackie-adenovirus receptor (CAR) expressed on CHO cells (human, UniProt P78310 20-365)
T1 construct: whole, on cells; also called hCAR; AdhCAR-transfected CHO cells
T1 sequence: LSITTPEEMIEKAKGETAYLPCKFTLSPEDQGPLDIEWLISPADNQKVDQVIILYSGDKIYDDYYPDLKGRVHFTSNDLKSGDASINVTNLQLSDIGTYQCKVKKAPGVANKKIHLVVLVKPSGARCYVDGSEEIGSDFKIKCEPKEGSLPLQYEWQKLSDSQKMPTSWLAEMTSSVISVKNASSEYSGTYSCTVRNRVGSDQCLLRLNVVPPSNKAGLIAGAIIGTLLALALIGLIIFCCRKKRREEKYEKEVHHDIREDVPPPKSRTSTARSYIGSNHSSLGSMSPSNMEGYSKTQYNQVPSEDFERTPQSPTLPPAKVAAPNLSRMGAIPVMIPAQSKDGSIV

B1: Adenovirus type 30 (Ad30) fiber on wild-type Ad30 virus (other)
chain: MSKRLRVEDDFNPVYPYGYARNQNIPFLTPPFVSSDGFKNFPPGVLSLKLADPIAITNGDVSLKVGGGLTVEQDSGNLSVNPKAPLQVGTDKKLELALAPPFDVRDNKLAILVGDGLKVIDRSISDLPGLLNYLVVLTGKGIGNEELKNDDGSNKGVGLCVRIGEGGGLTFDDKGYLVAWNNKHDIRTIWTTLDPSPNCKIDIEKDSKLTLVLTKCGSQILANVSLIIVNGKFKILNNKTDPSLPKSFNIKLLFDQNGVLLENSNIEKQYLNFRSGDSILPEPYKNAIGFMPNLLAYAKATTDQSKIYARNTIYGNIYLDNQPYNPVVIKITFNNEADSAYSITFNYSWTKDYDNIPFDSTSFTFSYIAQE
notes: Tested as 3H-labelled wild-type Ad30 virions; also called Ad30 wildtype; Ad30 (VR-273)
B2: Chimeric Ad5/30 fiber (Ad5 tail, Ad30 shaft and knob) on virus Ad5GFPf30 (other)
chain: MKRARPSEDTFNPVYPYDTETGPPTVPFLTPPFVSPNGFQESPPGVLSLKLADPIAITNGDVSLKVGGGLTVEQDSGNLSVNPKAPLQVGTDKKLELALAPPFDVRDNKLAILVGDGLKVIDRSISDLPGLLNYLVVLTGKGIGNEELKNDDGSNKGVGLCVRIGEGGGLTFDDKGYLVAWNNKHDIRTIWTTLDPSPNCKIDIEKDSKLTLVLTKCGSQILANVSLIIVNGKFKILNNKTDPSLPKSFNIKLLFDQNGVLLENSNIEKQYLNFRSGDSILPEPYKNAIGFMPNLLAYAKATTDQSKIYARNTIYGNIYLDNQPYNPVVIKITFNNEADSAYSITFNYSWTKDYDNIPFDSTSFTFSYIAQE
notes: also called Ad5RSVeGFPf30; AdGFPf30
B3: Adenovirus type 5 (Ad5) fiber, wild type (other)
chain: MKRARPSEDTFNPVYPYDTETGPPTVPFLTPPFVSPNGFQESPPGVLSLRLSEPLVTSNGMLALKMGNGLSLDEAGNLTSQNVTTVSPPLKKTKSNINLEISAPLTVTSEALTVAAAAPLMVAGNTLTMQSQAPLTVHDSKLSIATQGPLTVSEGKLALQTSGPLTTTDSSTLTITASPPLTTATGSLGIDLKEPIYTQNGKLGLKYGAPLHVTDDLNTLTVATGPGVTINNTSLQTKVTGALGFDSQGNMQLNVAGGLRIDSQNRRLILDVSYPFDAQNQLNLRLGQGPLFINSAHNLDINYNKGLYLFTASNNSKKLEVNLSTAKGLMFDATAIAINAGDGLEFGSPNAPNTNPLKTKIGHGLEFDSNKAMVPKLGTGLSFDSTGAITVGNKNNDKLTIWTTPAPSPNCRLNAEKDAKLTLVLTKCGSQILATVSVLAVKGSLAPISGTVQSAHLIIRFDENGVLLNNSFLDPEYWNFRNGDLTEGTAYTNAVGFMPNLSAYPKSHGKTAKSNIVSQVYLNGDKTKPVTLTITLNGTQETGDTTPSAYSMSFSWDWSGHNYINEIFATSSYTFSYIAQE
notes: also called Ad5GFP; Ad5RSVeGFP

Columns and labels:
[1] = molecular target: T2, Soluble human transferrin receptor, purified extracellular domain (human, UniProt P02786 89-760); assay: phage display panning on immobilised hTfR extracellular domain, three rounds
T2 construct: extracellular domain; Gift material; also called hTfR; soluble hTfR
T2 sequence (P02786 89-760): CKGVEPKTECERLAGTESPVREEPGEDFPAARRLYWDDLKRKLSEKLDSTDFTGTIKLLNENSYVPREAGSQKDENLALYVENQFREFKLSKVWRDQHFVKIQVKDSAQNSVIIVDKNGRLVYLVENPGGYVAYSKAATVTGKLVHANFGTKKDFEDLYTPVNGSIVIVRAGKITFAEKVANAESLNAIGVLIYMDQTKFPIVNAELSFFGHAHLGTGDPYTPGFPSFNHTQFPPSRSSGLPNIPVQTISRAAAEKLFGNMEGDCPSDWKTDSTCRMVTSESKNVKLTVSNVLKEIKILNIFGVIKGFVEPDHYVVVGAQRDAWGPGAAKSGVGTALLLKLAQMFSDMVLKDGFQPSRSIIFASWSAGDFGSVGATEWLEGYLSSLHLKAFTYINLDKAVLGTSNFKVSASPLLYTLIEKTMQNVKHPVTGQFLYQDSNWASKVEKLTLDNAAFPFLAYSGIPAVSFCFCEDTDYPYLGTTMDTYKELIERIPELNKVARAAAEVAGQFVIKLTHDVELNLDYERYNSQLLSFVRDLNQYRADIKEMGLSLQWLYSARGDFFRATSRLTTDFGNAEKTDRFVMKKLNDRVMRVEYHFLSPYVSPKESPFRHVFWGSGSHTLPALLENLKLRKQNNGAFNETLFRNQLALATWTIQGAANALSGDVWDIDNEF
From the text: Enzyme-linked immunosorbent assay (ELISA) plates were coated with soluble hTfR, and bound phage were eluted by a low-pH buffer. Eluted phage were amplified in E. coli K91 and subsequently screened again for binding to the immobilized hTfR. In separate experiments, bound phage were eluted with purified transferrin holoenzyme. Three rounds of screening-amplification were done for each type of elution.
Phage screening. Ten microliters of amplified nonapeptide phage library (a generous gift from Al Jesaitis, Montana State University) was screened against the purified extracellular domain of hTfR (kindly provided by Martin Lawrence, Harvard University) coated on 96-well microtiter plates in 100 μl of 0.05 M carbonate buffer (pH 9.6). In the first panning, hTfR was coated at 100 μg/ml. Subsequent pannings were done with decreasing concentrations of hTfR for increased stringency (10 and 1 μg/ml for the second and third pannings, respectively). Bound phage were eluted with low-acid buffer (0.1 M glycine, pH 2.2) or ligand (iron-loaded human transferrin; Sigma-Aldrich) in TBS buffer (50 mM Tris-Cl, pH 7.5; 150 mM NaCl). After three successive rounds of panning and amplification, clones were picked and sequenced as described elsewhere.

[2] = molecular target: T1, Human coxsackie-adenovirus receptor …; assay: 3H-labelled virus binding to CHO cells with or without hCAR, 1 h on ice
[3] = molecular target: T2, Soluble human transferrin receptor, …; assay: pull-down of fiber lysate with soluble hTfR on anti-hTfR antibody 128.1 beads, Western blot with 4D2.5
[4] = molecular target: T1, Human coxsackie-adenovirus receptor …

| Binder | binding result [1] | binding result [2] | further results |
| --- | --- | --- | --- |
| GKGPKWMR [Phage displaying peptide GKGPKWMR] | binds | – | – |
| KWKLHGHIK [Phage displaying peptide KWKLHGHIK] | binds | – | – |
| B1 | – | no binding | – |
| B2 | – | no binding | – |
| B3 | – | – | binding result [3]: no binding; fold increase in bound particles with CAR expression [4]: 3.6 fold |
| AIAKKHKWN [Phage displaying peptide AIAKKHKWN] | binds | – | – |
